Measurements from patent publication US20110008829A1 (University of California, published 2011).

T1: N-terminal GST-tagged HMGS with 1 C-terminal SH3 peptide ligand (Saccharomyces cerevisiae, UniProt P54839 1-491)
T1 construct: Bait of the GST pull-down; also called HMGS bait with 1 SH3 ligand; not shown: glutathione S-transferase (GST) tag at the N-terminus
T1 sequence: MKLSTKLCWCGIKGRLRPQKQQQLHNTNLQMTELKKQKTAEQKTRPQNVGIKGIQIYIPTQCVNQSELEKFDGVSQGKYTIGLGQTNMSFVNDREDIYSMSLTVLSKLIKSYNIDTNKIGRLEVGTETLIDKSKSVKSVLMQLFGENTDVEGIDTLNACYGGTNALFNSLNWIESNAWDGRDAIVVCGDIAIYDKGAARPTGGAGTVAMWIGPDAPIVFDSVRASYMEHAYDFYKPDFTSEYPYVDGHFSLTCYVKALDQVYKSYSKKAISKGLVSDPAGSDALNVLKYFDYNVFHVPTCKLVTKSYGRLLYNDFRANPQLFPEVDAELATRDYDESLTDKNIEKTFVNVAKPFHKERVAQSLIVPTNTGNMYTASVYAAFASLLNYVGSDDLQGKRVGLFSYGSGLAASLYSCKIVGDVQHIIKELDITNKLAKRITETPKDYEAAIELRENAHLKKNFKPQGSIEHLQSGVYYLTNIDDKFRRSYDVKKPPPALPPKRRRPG

T2: Syn PDZ (PDZ domain of mouse α-syntrophin, residues 77-171) (mouse, UniProt Q61234 77-171)
T2 construct: range 77-171; also called Mouse α-syntrophin (syn) PDZ domain
T2 sequence (looked up): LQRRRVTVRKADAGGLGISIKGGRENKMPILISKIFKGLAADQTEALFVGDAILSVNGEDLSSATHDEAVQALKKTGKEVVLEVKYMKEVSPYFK

B1: HMGR alone (enzyme, Saccharomyces cerevisiae, UniProt P12683 554-1054, looked up)
chain: VLTNKTVISGSKVKSLSSAQSSSSGPSSSSEEDDSRDIESLDKKIRPLEELEALLSSGNTKQLKNKEVAALVIHGKLPLYALEKKLGDTTRAVAVRRKALSILAEAPVLASDRLPYKNYDYDRVFGACCENVIGYMPLPVGVIGPLVIDGTSYHIPMATTEGCLVASAMRGCKAINAGGGATTVLTKDGMTRGPVVRFPTLKRSGACKIWLDSEEGQNAIKKAFNSTSRFARLQHIQTCLAGDLLFMRFRTTTGDAMGMNMISKGVEYSLKQMVEEYGWEDMEVVSVSGNYCTDKKPAAINWIEGRGKSVVAEATIPGDVVRKVLKSDVSALVELNIAKNLVGSAMAGSVGGFNAHAANLVTAVFLALGQDPAQNVESSNCITLMKEVDGDLRISVSMPSIEVGTIGGGTVLEPQGAMLDLLGVRGPHATAPGTNARQLARIVACAVLAGELSLCAALAAGHLVQSHMTHNRKPAEPTKPNNLDATDINRLKDGSVTCIKS
notes: Control prey of the GST pull-down; also called HMGR prey without an N-terminal SH3 domain
B2: N-terminal GST-tagged HMGS with 0 C-terminal SH3 peptide ligands (enzyme, UniProt P54839 1-491, looked up)
chain: MKLSTKLCWCGIKGRLRPQKQQQLHNTNLQMTELKKQKTAEQKTRPQNVGIKGIQIYIPTQCVNQSELEKFDGVSQGKYTIGLGQTNMSFVNDREDIYSMSLTVLSKLIKSYNIDTNKIGRLEVGTETLIDKSKSVKSVLMQLFGENTDVEGIDTLNACYGGTNALFNSLNWIESNAWDGRDAIVVCGDIAIYDKGAARPTGGAGTVAMWIGPDAPIVFDSVRASYMEHAYDFYKPDFTSEYPYVDGHFSLTCYVKALDQVYKSYSKKAISKGLVSDPAGSDALNVLKYFDYNVFHVPTCKLVTKSYGRLLYNDFRANPQLFPEVDAELATRDYDESLTDKNIEKTFVNVAKPFHKERVAQSLIVPTNTGNMYTASVYAAFASLLNYVGSDDLQGKRVGLFSYGSGLAASLYSCKIVGDVQHIIKELDITNKLAKRITETPKDYEAAIELRENAHLKKNFKPQGSIEHLQSGVYYLTNIDDKFRRSYDVKK
notes: Bait of the GST pull-down; also called HMGS bait with 0 SH3 ligands; not shown: glutathione S-transferase (GST) tag at the N-terminus

Experiments:
[1] = target: T1, N-terminal GST-tagged HMGS with 1 …; assay: GST pull-down, GST-HMGS as bait, HMGR as prey
Source text: (§1) As a direct test of engineered enzyme co-recruitment, the bottleneck enzymatic step of the mevalonate biosynthetic pathway (HMGR-catalyzed turnover of HMG-CoA to mevalonate) was targeted for flux improvement. A synthetic complex of HMGS and HMGR was created by recombining a varying number of SH3 (Src Homology 3 domain from the adapter protein CRK) interaction ligands to the C-terminus of HMGS and recombining an SH3 domain to the N-terminus of HMGR (FIG. 2a). This simple design also allowed for control over the relative ratio of these two enzymes at the resultant complex. The ability of these proteins to interact in an SH3-dependent manner was probed in a GST pull-down experiment (FIG. 2b). […] As prey, an SH3 domain was recombined to the N-terminus of HMGR and compared to HMGR alone. No significant interaction was observed between HMGS and HMGR without engineered SH3 interactions. However, HMGR with an N-terminal SH3 domain was pulled down by GST-tagged HMGS in a ligand-dependent manner. […] Thus, the relative stoichiometries of these two enzymes were controlled at the complex by varying the number of interaction ligands tethered to HMGS.

[2] = target: T3, Crk SH3 (SH3 domain of mouse Crk, residues 134-191) (mouse, UniProt Q64010 134-191); assay: method not described; footnote: affinities reported as measured in trans
T3 construct: range 134-191; also called mouse Crk SH3 domain

[3] = target: T2, Syn PDZ (PDZ domain of mouse …); assay: as above
HMGR alone = target: B1; assay: GST pull-down, GST-HMGS as bait, HMGR as prey
Source text: as §1

[4] = target: T4, HMGR with an N-terminal SH3 domain (mouse; Saccharomyces cerevisiae, UniProt Q64010 134-191; P12683 554-1054); assay: GST pull-down, GST-HMGS as bait, HMGR as prey
T4 construct: also called SH3 domain recombined to the N-terminus of HMGR; HMGR prey with an N-terminal SH3 domain
Source text: as §1

[5] = target: T5, WASP GBD (GTPase Binding Domain of rat N-WASP, residues 196-274) (rat, UniProt O08816 196-274); assay: method not described; footnote: affinities reported as measured in trans
T5 construct: range 196-274; also called rat N-WASP GBD
T5 sequence (O08816 196-274 limits assumed): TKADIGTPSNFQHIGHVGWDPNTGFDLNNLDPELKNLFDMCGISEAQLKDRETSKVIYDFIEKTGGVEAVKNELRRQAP

T3 sequence (Q64010 134-191 limits assumed): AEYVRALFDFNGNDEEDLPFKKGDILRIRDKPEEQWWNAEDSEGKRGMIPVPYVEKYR

Q: Does B1 bind [1]?
A: Result: no binding

Q: PPPALPPKRRRPG (also called SH3 peptide ligand) [SH3 lig.] was tested. Which Kd [2] did it give?
A: The Kd was 100 nM.

Q: For GVKESLV (also called PDZ ligand; GVKESLV) [PDZ lig.], which Kd [3] is on record?
A: The Kd was 8000 nM.

Q: Does B2 bind (HMGR alone)?
A: Result: no binding

Q: Does B2 bind [4]?
A: Result: no binding

Q: LVGALMHVMQKRSRAIHSSDEGEDQAGDEDED (also called GBD ligand) [GBD lig.] was tested. Which Kd [5] did it give?
A: Its Kd is 1000 nM.
